Test results from the nanobody polyreactivity screen of Harvey et al. (2022).

Assay: yeast display, Sf9 membrane polyspecificity reagent, FACS + sequencing; frameworks hold sequencing errors
In short: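 Synthetic nanobody libraries on Saccharomyces cerevisiae BJ5465 were galactose-induced for 36–48 hours, stained 1 hour at 4 °C with 10% biotinylated, detergent-solubilized Sf9 membrane reagent and enriched on streptavidin microbeads. FACS then separated cells into low and high (top ~1%) gates by anti-HA (expression) and streptavidin (reagent binding) fluorescence. Genes were colony-PCR amplified, MiSeq 2 × 250 sequenced and CDR-length filtered. A clone's polyreactivity label is that of its gate of origin.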
In the case of “QVQLVESGGGLDQAGGSLRLSCAAYGSTFAPNAMGGYRQSPGKERELVAAISSGSSTYYADSVKGRFTISRDNAKNTVNLQMNSLKPEDTAVYYCIARGLSSLSTIEDYCGQGTQVTVSS”, the “polyreactivity (PSR sort gate)” value is reported as “high polyreactivity”.
In the case of “QVQLVESGGGLDQAGGSLRLSCADSGRTFYIYAMGWYRQAPGKERELVAAITSVGSTNYADSVKGRFTISRDNAKNTVYLQMNSLKPEDTAVYYCAAESTEGTSGDYDYWGQGTQVTVSS”, the “polyreactivity (PSR sort gate)” value is reported as “low polyreactivity”.
For “QVQLVESGGGLDQAGGSLRLSCAPSGYTFNVYSMGWYRQAPGNESELVAGISSYGGSTYYADSVKGRFTISRDNAKNTVYIQMNSLKPEDTAVYYCAARSALYPKYESWGQGTQVTVSS”, the “polyreactivity (PSR sort gate)” value was “low polyreactivity”.
With “QVQLVESGGGLDQAGGSLRLSFAASGFIFRYYTMGWYRQAPGKERELVAVITRGGSTYYADSVKGRFTISRDNAKNTVYLQMNSLKPEDTAVYYCAADRPGTGYSDYDYWGQGTQVTVSS” the “polyreactivity (PSR sort gate)” value was “high polyreactivity”.
In the case of “QVQLVESGGGLDQAGGSLRLSFAASGFTFGYYAMGWYRQEPGKARELVAAITYDGDTTYYADSVKGRITISRDNAKNTVYLQMNSLKPEDTAVYYCNRDVLTFNYDYWGQGTQVTVSS”, the “polyreactivity (PSR sort gate)” value is reported as “low polyreactivity”.
For “QVQLVESGGGLDQAGGSLRLSSAASGLTFGGNAMGWYRQAPGKERELVAAISWSDDTTDYADSVKGRFTISRDNAKNTVYLQMNSLKPEDTAVYYCAARLPFEHVEYWGQGTQVTVSS”, the “polyreactivity (PSR sort gate)” value was “low polyreactivity”.
In the case of “QVQLVESGGGLDQAGGSLRLSSAASVSIFRYNTMGWYRPAPGKEREFVDSIRIGGSTYYADSVKGRFTISRDNAKNTVYLQMNSLKPEDTAVYYCAVRPYRSAGGSVTRGAYYYWGQGTQVTVSS”, the “polyreactivity (PSR sort gate)” value is reported as “high polyreactivity”.
In the case of “QVQLVESGGGLDQAGGSLRLSWAASGFTFKNYTMGWYRQAPGKERELVAAISKSGDITYYADSVKGRFTISRDNAKNTVYLQMNSLKPEDTAVYYCNAPRRNWSYDYWGQGTQVTVSS”, the “polyreactivity (PSR sort gate)” value is reported as “high polyreactivity”.
In the case of “QVQLVESGGGLDQAGGSLRLTCAASGRTIGSYAMGWYRQAPGKERELVAAISYSGGSTYYADSVKGRFTISRDNAKNTVYLQMNSLKPEDTAVYYCAKSWRYSIIQSYRAGYNYWGQGTQVTVSS”, the “polyreactivity (PSR sort gate)” value is reported as “high polyreactivity”.
With “QVQLVESGGGLDQAGGSLRLTCAATGRIILGYAMGWYRQAPGKEREFVAANSRGGTSTYYADSVKGRFTISRDNAKNTVYLQMNSLKPEDTAVYYCAVDVPPYRLVRNYYEYDYWGQGTQVTVSS” the “polyreactivity (PSR sort gate)” value was “high polyreactivity”.
For “QVQLVESGGGLDQAGGSLRLTWAASGSIFKFYAMGWYRQAPGKERDMVAAISQSGGRTYYADSVKGRFTISRDNAKNSVYLQMNSLKPEDTAVYYCAKSVFPVYGRPSNLWFNYWGQGTQVTVSS”, the “polyreactivity (PSR sort gate)” value was “high polyreactivity”.
With “QVQLVESGGGLDQAGGTLRLSCAASGSTFSDYAMGWYRQAPGKERQLVAAISVSDGSTYYADSVKGRFTISRDNAKNTVYFQMNSLKPEDTAVYYCAAEYPYFVYSYFRFDYWGQGTQVTVSS” the “polyreactivity (PSR sort gate)” value was “low polyreactivity”.
In the case of “QVQLVESGGGLDQAGRSLRLICAASVFTIHAYAMGRYRQAHGKERELVAAISASGGSTYYADSVKGRFTISRDNANNTVYLKMNSLKPEDTAVYYCNAGDYRTFYRRFDYWGQGTQVTVSS”, the “polyreactivity (PSR sort gate)” value is reported as “low polyreactivity”.
In the case of “QVQLVESGGGLDQAGRSLRLSCAASGFIFYYNAMGWYRQAPGKQRELVAAISSGGSTNYADSVKGRFTISRDNAKNTVYLQMNSLQPEDTAVYYCAKRPTGGYKYYYTTSKYDYWGQGTQVTVSS”, the “polyreactivity (PSR sort gate)” value is reported as “low polyreactivity”.
In the case of “QVQLVESGGGLDQARGTLRLSCAASGITITLYAMGWYRQTPGKESELVAAISRGGGTTNYADSVKGRFTISRDNAKNTVFLELNSLKPEDNAVYYCAAAYTIYWFSYRVLYYYWGQGTQVTVSS”, the “polyreactivity (PSR sort gate)” value is reported as “low polyreactivity”.
With “QVQLVESGGGLDQPGGSLRLTWAASGSTFYLYTMGWYRQAHGKERELVARISSSGSTNYADSVKGRFTISRDNAKNAVYLQMNSLKPEDTAVYYCNKDWIYRGYDYWGQATQVTVSS” the “polyreactivity (PSR sort gate)” value was “high polyreactivity”.
For “QVQLVESGGGLEQAGGSIRLNCAASGSTFRYNAMGWYRQARGKERELVAAITWSGGSTYFADSVKGRFTISRDNAKHNVYLQMNSLKAEDTAVYYCAKVYFWGALSPYKYDEDYWGQGTQVTVSS”, the “polyreactivity (PSR sort gate)” value was “low polyreactivity”.
With “QVQLVESGGGLEQAGGSLRLSCAASGRTFQYYTMGLYRQAPGKERELVAAISTGGSTHYSDSVKGRFTISRDNAKNTVYLEMFSLKPVDTAVYYCAALWSRRRSRPRFPGDFWGQGTQLTVSS” the “polyreactivity (PSR sort gate)” value was “high polyreactivity”.
In the case of “QVQLVESGGGLFHAGGSLRLSCAASGRTFGIYAMGGSRQAPGKERELVAAITWSGDSTYYADSVKGRFTISRDNAKNTVYLQMNRLKPEDTAVYYCAADYVGVTSVRYDYWGQGTQVTVSS”, the “polyreactivity (PSR sort gate)” value is reported as “low polyreactivity”.
In the case of “QVQLVESGGGLFHAGGSLRLSCAASGSTFAYYAMGWYIQAPGKERELVAGISGSGGSTYYADSVKGRFTISRDNAKNTVYLQMKSLKPEDNAVYYCAVVQRSKRTYPWYDYWGQGTQVTVCS”, the “polyreactivity (PSR sort gate)” value is reported as “low polyreactivity”.
With “QVQLVESGGGLFKAGGSLRLSCAASGSTLVTYAKGWYRQAPGKERELVAAISWRGGSTYYADSVKGRYTISRDNAKNTVYLQMNSLKPEDTEVYYCNKMRAYKESETYYFWGQGTQVTVSS” the “polyreactivity (PSR sort gate)” value was “low polyreactivity”.
For “QVQLVESGGGLFLAGGSLRLSCAAAGSTFVTNDMGWYRQAPGKERELVAAISVGGRTSYADSVKGRFTISRDNAKNTVYLQMNSLKPEDTAVYYCAAQYRYTYWGQGTQVTVSS”, the “polyreactivity (PSR sort gate)” value was “low polyreactivity”.
For “QVQLVESGGGLFLAGGSLRLSCAASGSTFWYNMGWYRQAPGKDRELVAAISNSSGRTYYADSVKGRCTISRDNPKNTDYLQMKSLKPEDTAVYYSAADPKLGSRTGFYYWGQGTQVTVSS”, the “polyreactivity (PSR sort gate)” value was “high polyreactivity”.
In the case of “QVQLVESGGGLFQAGGILILSFAASGNTLNYYTMGWYRQAPGKERELVAAISSSGGSTYYAESVKGSFTISRDYAKNTVYLHMNRLKPEDNAVYFCNDSVINEMNNWGQGTQVTVSS”, the “polyreactivity (PSR sort gate)” value is reported as “low polyreactivity”.
In the case of “QVQLVESGGGLFQAGGILRLTCAASGLTIYDYAMRWSRQAPAKERELVAANTRSAGSTYYADSVKGRFTISRDYAKYTVYLLMNSLKPEDTAVYYCAARGKIRYQGYYGSDQYYYWGQGTQVSVSS”, the “polyreactivity (PSR sort gate)” value is reported as “high polyreactivity”.
With “QVQLVESGGGLFQAGGRLRLSCAASGSTFGYNAMGWYREAPGKERELVAAISYSSGSTYYADSVKGRFTISRDNAKNTVYLQMNSLKPEDTAVYYCAVVSRASRRGGRYDYWGQGTQVTVSS” the “polyreactivity (PSR sort gate)” value was “high polyreactivity”.
In the case of “QVQLVESGGGLFQAGGSIRLSCAASGRISEGYAMGWYIQAPGKERELVAAITSSTASTYYADSVKGRFTISRDNAKNTVYLQMNSLKPEDTAVYYCNADYGLYPEDYDYWGQGTQVTVSS”, the “polyreactivity (PSR sort gate)” value is reported as “low polyreactivity”.
With “QVQLVESGGGLFQAGGSLRISCAASGSTFYHNFMGWYRQAPGKERELVARITSTDSTYYEDSVKGRFTISGDNAKNTVYLQMNSLKPEYTAVSYCAASWWSPYDYWGQATQVTVSS” the “polyreactivity (PSR sort gate)” value was “low polyreactivity”.
In the case of “QVQLVESGGGLFQAGGSLRISCAPSGFISHFYAMAWYRHAPGKEREFVARISYSVGSTYYADSVKGRFTISRDNAKNTVYVQMNSLKPEDTAVYDCNAGPQYDVHEYYYWGQGTQVTGSS”, the “polyreactivity (PSR sort gate)” value is reported as “low polyreactivity”.
For “QVQLVESGGGLFQAGGSLRLRWAASGNTFRYYVMGWYRQAPGKERELVADINWSGGRTYYADSVKWGFTISRDNAKNTVYFQMNSLKPEDTAVFYCNAARKLYRYSYDYWGQGTQVTLSS”, the “polyreactivity (PSR sort gate)” value was “high polyreactivity”.
For “QVQLVESGGGLFQAGGSLRLSCAASGFIFFPYTMGWYRQAPGKERELVAAITNGGSTSYADSVKGRFTISRDNAKNTVYLQMNSLKPEDTAVYYCAADLGRNLLHTYYYWGQGTQVTVSS”, the “polyreactivity (PSR sort gate)” value was “low polyreactivity”.
In the case of “QVQLVESGGGLFQAGGSLRLSCAASGFIFQYYDMGWYRQAPGKERELVAAINYSGGNTYYADSVKGRFTISRDNAKNTVYLQLNILKPEDSEVFYCAAAPSVSCTRLYEYWGQGTQVTVSS”, the “polyreactivity (PSR sort gate)” value is reported as “high polyreactivity”.
With “QVQLVESGGGLFQAGGSLRLSCAASGFTFSFNTMGWYRQAPVKERELVAAIRNNGGGTNYADSVKGRFTISRDKAMNTVYLQMNSLKPEDTAVYYCAADRIYAWFGRLYYWGQGTQVTGSS” the “polyreactivity (PSR sort gate)” value was “low polyreactivity”.
With “QVQLVESGGGLFQAGGSLRLSCAASGFTIFLNAMGWYRQAPGKERELVAAITVSGSSTYYADSVKGRFTISRDNAKNTVYLQMNSLKPEDTAVYYCNAEIYSPYYTYDYWGQGTQVTVSS” the “polyreactivity (PSR sort gate)” value was “low polyreactivity”.
In the case of “QVQLVESGGGLFQAGGSLRLSCAASGIIFPYYVMGWSRQAPGTEREFVATISWSGGRTYYADSVKGRFTISRDNAKNTVYFQMNSLKPEDTAVYYCAAAKHYYNGYGYWGQGTQVTVSS”, the “polyreactivity (PSR sort gate)” value is reported as “high polyreactivity”.
For “QVQLVESGGGLFQAGGSLRLSCAASGITLYLYVMGWYRQAPGIEREFVAAIRWSGGSTYYADSVKGRFTISRDNAKYTVYLLMNSLKPEDTAVYYCAVTYVGHVYEYYYWGQGTQVTVSS”, the “polyreactivity (PSR sort gate)” value was “low polyreactivity”.
With “QVQLVESGGGLFQAGGSLRLSCAASGLIFSSNAMGWYRQAPGKERELVATISWSGGSTYYADSVKGRFTISRDKAKNNVYLQMNSQKPEDTAVYYCAAAQRWSFLHYYYYWGQGTQVTVSS” the “polyreactivity (PSR sort gate)” value was “high polyreactivity”.
For “QVQLVESGGGLFQAGGSLRLSCAASGLTFYIYAMGWYRQAPGKEREFVAAIRRSGGRTYYADSVKGRFTISRDNAKNTVYLQMNSLKPEDTAVYYCNRYTQYRDRSDNHWGQGTQVTVSS”, the “polyreactivity (PSR sort gate)” value was “high polyreactivity”.
For “QVQLVESGGGLFQAGGSLRLSCAASGNTFPYYAMGWYRQAPVKERELVAAISRSGGTTYYADSVKGRFTISRDNAKNTVYLQMTSLKPEDTAVYYCAALYGSRSTYHMDDYWGQGSQVTVSS”, the “polyreactivity (PSR sort gate)” value was “high polyreactivity”.
In the case of “QVQLVESGGGLFQAGGSLRLSCAASGRIFHWYAMGWYRQAPGKERELHAAITDGDSTYYADSVKGRFTISRDNAKNTVYLQMNSLKPEDTAVYYCAADVVYSPYVFGGTRYYKYDYWGQVTQVTVSS”, the “polyreactivity (PSR sort gate)” value is reported as “low polyreactivity”.
In the case of “QVQLVESGGGLFQAGGSLRLSCAASGRIFSDYAMGWYRQAPGKERELVATITSGDSTNYADSVKGRFTISRDNAKNTVYLQMNSLKPEDTAVYYCNADRFADYDYWGQGTQVTVSS”, the “polyreactivity (PSR sort gate)” value is reported as “low polyreactivity”.
In the case of “QVQLVESGGGLFQAGGSLRLSCAASGRTFDDYAMGWYRQAPGKERELVAGITDNGGGTNYADSVKGRFTISRDNAKNTVYLQMNSLKQEDTAVYYCAAGETFEMYYWGQVTQVTVSS”, the “polyreactivity (PSR sort gate)” value is reported as “low polyreactivity”.
With “QVQLVESGGGLFQAGGSLRLSCAASGRTFGIYAMRWYRQAPGKERELVATISWRGGSTYYADSVKGRFTISRDNAKNTVDLQMNSLKPEDTAVYYCAAVLTALSPDFEYEYWGQGTQVTVSS” the “polyreactivity (PSR sort gate)” value was “low polyreactivity”.
